Columns and labels:
[1] = biological target: HA of A/swine/Netherlands/1/87 (H1N1) (influenza A virus A/swine/Netherlands/1/87 (H1N1))
[2] = biological target: HA of swine H3N2 viruses
[3] = biological target: HA of human-derived H3N2 strains
[4] = biological target: HA of avian H3N2 viruses
[5] = biological target: HA of the 2009 pandemic H1N1 strains, California/4/09 and Netherlands/602/09
[6] = biological target: HA of all influenza A/H1N1 viruses tested with RpSP-D multimers and trimers
[7] = biological target: HA of most H1N1 viruses

How did the HI assay: minimal inhibitory concentration of RpSP-D trimers; not inhibited [1] turn out when “RpSP-D trimers (from UniProt Q9N1X4 21-378) (natural protein)” was run?
Its HI assay: minimal inhibitory concentration of RpSP-D trimers; not inhibited is greater than 1600 ng/100 µl.

B1: recombinant porcine SP-D, Q9N1X4 21-378 (natural protein)
chain: AEMKTYSQRAVANACALVMCSPMENGLPGRDGRDGREGPRGEKGDPGLPGAVGRAGMPGLAGPVGPKGDNGSTGEPGAKGDIGPCGPPGPPGIPGPAGKEGPSGQQGNIGPPGTPGPKGETGPKGEVGALGMQGSTGARGPAGLKGERGAPGERGAPGSAGAAGPAGATGPQGPSGARGPPGLKGDRGPPGERGAKGESGLPGITALRQQVETLQGQVQRLQKAFSQYKKVELFPNGRGVGEKIFKTGGFEKTFQDAQQVCTQAGGQMASPRSETENEALSQLVTAQNKAAFLSMTDIKTEGNFTYPTGEPLVYANWAPGEPNNNGGSSGAENCVEIFPNGKWNDKACGELRLVICEF
Which results are given for B1?
HI assay: minimal inhibitory concentration of RpSP-D [2]: 51 ng/100 µl; HI assay: minimal inhibitory concentration of RpSP-D [3]: 11 ng/100 µl; HI assay: minimal inhibitory concentration of RpSP-D [4]: 14.6 ng/100 µl; HI assay: average inhibitory concentration of RpSP-D [5]: 304 ng/100 µl

B2: RpSP-D trimers (natural protein)
chain: AEMKTYSQRAVANACALVMCSPMENGLPGRDGRDGREGPRGEKGDPGLPGAVGRAGMPGLAGPVGPKGDNGSTGEPGAKGDIGPCGPPGPPGIPGPAGKEGPSGQQGNIGPPGTPGPKGETGPKGEVGALGMQGSTGARGPAGLKGERGAPGERGAPGSAGAAGPAGATGPQGPSGARGPPGLKGDRGPPGERGAKGESGLPGITALRQQVETLQGQVQRLQKAFSQYKKVELFPNGRGVGEKIFKTGGFEKTFQDAQQVCTQAGGQMASPRSETENEALSQLVTAQNKAAFLSMTDIKTEGNFTYPTGEPLVYANWAPGEPNNNGGSSGAENCVEIFPNGKWNDKACGELRLVICEF
How did the HI assay: average minimal inhibitory concentration of RpSP-D trimers [6] turn out when B2 was run?
The HI assay: average minimal inhibitory concentration of RpSP-D trimers was 602 ng/100 µl.

B3: RpSP-D multimers (natural protein)
chain: AEMKTYSQRAVANACALVMCSPMENGLPGRDGRDGREGPRGEKGDPGLPGAVGRAGMPGLAGPVGPKGDNGSTGEPGAKGDIGPCGPPGPPGIPGPAGKEGPSGQQGNIGPPGTPGPKGETGPKGEVGALGMQGSTGARGPAGLKGERGAPGERGAPGSAGAAGPAGATGPQGPSGARGPPGLKGDRGPPGERGAKGESGLPGITALRQQVETLQGQVQRLQKAFSQYKKVELFPNGRGVGEKIFKTGGFEKTFQDAQQVCTQAGGQMASPRSETENEALSQLVTAQNKAAFLSMTDIKTEGNFTYPTGEPLVYANWAPGEPNNNGGSSGAENCVEIFPNGKWNDKACGELRLVICEF
With B3 as the molecule, how does the HI assay: average minimal inhibitory concentration of RpSP-D multimers [6] read?
Its HI assay: average minimal inhibitory concentration of RpSP-D multimers is 39.8 ng/100 µl.

B4: recombinant human SP-D, P35247 21-375 (natural protein)
chain: AEMKTYSHRTMPSACTLVMCSSVESGLPGRDGRDGREGPRGEKGDPGLPGAAGQAGMPGQAGPVGPKGDNGSVGEPGPKGDTGPSGPPGPPGVPGPAGREGPLGKQGNIGPQGKPGPKGEAGPKGEVGAPGMQGSAGARGLAGPKGERGVPGERGVPGNTGAAGSAGAMGPQGSPGARGPPGLKGDKGIPGDKGAKGESGLPDVASLRQQVEALQGQVQHLQAAFSQYKKVELFPNGQSVGEKIFKTAGFVKPFTEAQLLCTQAGGQLASPRSAAENAALQQLVVAKNEAAFLSMTDSKTEGKFTYPTGESLVYSNWAPGEPNDDGGSEDCVEIFTNGKWNDRACGEKRLVVCEF
B4 was tested. Which HI assay: minimal inhibitory concentration of RhSP-D; failed to inhibit [7] did it give?
Its HI assay: minimal inhibitory concentration of RhSP-D; failed to inhibit is greater than 7500 ng/100 µl.

Reference: paper PMC3173486
